Measurements taken from PMC2756588.

T1: Bbc1, P47068
T1 sequence (P47068 1-78, looked up): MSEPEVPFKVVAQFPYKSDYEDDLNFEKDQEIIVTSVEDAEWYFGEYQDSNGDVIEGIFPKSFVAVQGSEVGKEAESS

T2: Hof1, Q05080
T2 sequence (Q05080 590-669, looked up): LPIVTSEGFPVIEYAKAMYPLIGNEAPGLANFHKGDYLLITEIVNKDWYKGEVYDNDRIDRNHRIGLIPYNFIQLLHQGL

T3: Boi2, P39969
T3 sequence (P39969 32-116, looked up): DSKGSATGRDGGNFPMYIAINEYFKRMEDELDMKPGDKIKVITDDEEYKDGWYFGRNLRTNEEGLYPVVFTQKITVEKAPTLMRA

T4: Bud14, P27637
T4 sequence (P27637 247-328, looked up): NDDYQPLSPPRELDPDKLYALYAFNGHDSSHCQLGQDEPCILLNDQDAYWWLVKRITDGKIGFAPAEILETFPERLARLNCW

T5: Lsb4, P32793
T5 sequence (P32793 402-468, looked up): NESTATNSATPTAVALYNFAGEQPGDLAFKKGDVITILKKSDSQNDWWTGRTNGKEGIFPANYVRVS

T6: Boi1, P38041
T6 sequence (P38041 1-86, looked up): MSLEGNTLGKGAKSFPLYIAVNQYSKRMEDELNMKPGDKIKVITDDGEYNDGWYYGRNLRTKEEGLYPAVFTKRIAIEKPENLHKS

T7: Pex13, P80667
T7 sequence (P80667 295-386, looked up): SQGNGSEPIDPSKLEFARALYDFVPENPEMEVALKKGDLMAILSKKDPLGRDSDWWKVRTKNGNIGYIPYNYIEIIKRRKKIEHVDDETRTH

T8: Hse1, P38753
T8 sequence (P38753 208-285, looked up): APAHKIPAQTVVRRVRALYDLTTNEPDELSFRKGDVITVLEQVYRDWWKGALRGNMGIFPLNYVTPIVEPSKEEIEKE

T9: Pin3, Q06449
T9 sequence (Q06449 53-122, looked up): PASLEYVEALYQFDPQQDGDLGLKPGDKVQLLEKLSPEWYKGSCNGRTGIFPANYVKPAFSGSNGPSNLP

T10: Sla1-2, P32790
T10 sequence (P32790 60-140, looked up): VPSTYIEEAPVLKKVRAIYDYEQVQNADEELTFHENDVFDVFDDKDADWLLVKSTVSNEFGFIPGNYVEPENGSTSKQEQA

T11: Lsb1, P53281
T11 sequence (P53281 45-122, looked up): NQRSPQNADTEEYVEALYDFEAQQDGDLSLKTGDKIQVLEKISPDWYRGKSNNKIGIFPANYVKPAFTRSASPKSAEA

T12: Sla1-3, P32790
T12 sequence (P32790 344-424, looked up): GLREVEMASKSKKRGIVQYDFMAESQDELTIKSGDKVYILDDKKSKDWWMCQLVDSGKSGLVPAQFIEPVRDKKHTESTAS

T13: Abp1, P15891
T13 sequence (P15891 535-592, looked up): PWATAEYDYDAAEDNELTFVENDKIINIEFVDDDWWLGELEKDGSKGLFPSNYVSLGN

T14: Cyk3, Q07533
T14 sequence (Q07533 1-83, looked up): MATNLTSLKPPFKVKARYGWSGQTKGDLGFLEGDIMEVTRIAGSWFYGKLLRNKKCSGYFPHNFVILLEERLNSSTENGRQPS

T15: Cdc25, P04821
T15 sequence (P04821 50-136, looked up): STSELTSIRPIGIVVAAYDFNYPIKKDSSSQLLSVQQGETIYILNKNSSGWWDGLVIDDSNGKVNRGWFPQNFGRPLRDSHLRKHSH

T16: Lsb3, P43603
T16 sequence (P43603 385-451, looked up): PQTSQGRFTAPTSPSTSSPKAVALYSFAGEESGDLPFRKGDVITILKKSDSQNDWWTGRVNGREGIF

T17: Fus1, P11710
T17 sequence (P11710 432-512, looked up): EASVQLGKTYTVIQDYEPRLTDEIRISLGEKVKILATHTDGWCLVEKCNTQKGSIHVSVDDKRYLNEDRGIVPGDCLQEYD

T18: Myo5, Q04439
T18 sequence (Q04439 1072-1160, looked up): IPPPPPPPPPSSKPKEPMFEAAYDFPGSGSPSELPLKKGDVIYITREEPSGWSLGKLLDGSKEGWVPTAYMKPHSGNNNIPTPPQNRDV

T19: Bzz1-1, P38822
T19 sequence (P38822 478-572, looked up): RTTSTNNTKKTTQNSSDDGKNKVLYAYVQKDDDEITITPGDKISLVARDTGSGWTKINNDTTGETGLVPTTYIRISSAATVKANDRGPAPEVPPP

T20: Nbp2, Q12163
T20 sequence (Q12163 103-180, looked up): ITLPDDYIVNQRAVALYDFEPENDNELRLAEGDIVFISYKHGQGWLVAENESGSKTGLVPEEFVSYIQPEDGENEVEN

T21: Bzz1-2, P38822
T21 sequence (P38822 568-633, looked up): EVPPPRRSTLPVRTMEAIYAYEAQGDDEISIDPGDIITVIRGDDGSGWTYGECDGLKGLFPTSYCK


Assays:
Experiment in all cases: SPOT array
Bbc1, P47068 = molecular target: T1, Bbc1, P47068; settings: median of control spots 796
GST = settings: median of control spots 978
Hof1, Q05080 = molecular target: T2, Hof1, Q05080; settings: median of control spots 4086
Boi2, P39969 = molecular target: T3, Boi2, P39969; settings: median of control spots 1161
Sho1, P40073 = settings: median of control spots 1148
Chain of Sho1, P40073 (P40073 287-367): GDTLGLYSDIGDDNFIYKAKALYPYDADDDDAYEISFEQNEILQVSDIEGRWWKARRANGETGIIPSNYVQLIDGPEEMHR

Bud14, P27637 = molecular target: T4, Bud14, P27637; settings: median of control spots 956
Lsb4, P32793 = molecular target: T5, Lsb4, P32793; settings: median of control spots 397
Boi1, P38041 = molecular target: T6, Boi1, P38041; settings: median of control spots 1162
Pex13, P80667 = molecular target: T7, Pex13, P80667; settings: median of control spots 1341
Hse1, P38753 = molecular target: T8, Hse1, P38753; settings: median of control spots 1727
Pin3, Q06449 = molecular target: T9, Pin3, Q06449; settings: median of control spots 2171
Sla1-2, P32790 = molecular target: T10, Sla1-2, P32790; settings: median of control spots 712
Lsb1, P53281 = molecular target: T11, Lsb1, P53281; settings: median of control spots 388
Sla1-3, P32790 = molecular target: T12, Sla1-3, P32790; settings: median of control spots 5475
Bem1-2, P29366 = settings: median of control spots 4347
Chain of Bem1-2, P29366 (P29366 139-227): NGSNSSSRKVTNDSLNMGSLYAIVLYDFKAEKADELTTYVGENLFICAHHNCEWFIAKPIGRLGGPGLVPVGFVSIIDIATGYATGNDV

Bem1-1, P29366 = settings: median of control spots 4282
Chain of Bem1-1, P29366 (P29366 55-141): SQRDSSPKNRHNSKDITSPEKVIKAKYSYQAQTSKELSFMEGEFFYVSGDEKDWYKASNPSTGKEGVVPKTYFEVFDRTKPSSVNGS

Abp1, P15891 = molecular target: T13, Abp1, P15891; settings: median of control spots 935
Cyk3, Q07533 = molecular target: T14, Cyk3, Q07533; settings: median of control spots 1451
Cdc25, P04821 = molecular target: T15, Cdc25, P04821; settings: median of control spots 969
Lsb3, P43603 = molecular target: T16, Lsb3, P43603; settings: median of control spots 406
Fus1, P11710 = molecular target: T17, Fus1, P11710; settings: median of control spots 1200
Myo3, P36006 = settings: median of control spots 468
Myo5, Q04439 = molecular target: T18, Myo5, Q04439; settings: median of control spots 471
Bzz1-1, P38822 = molecular target: T19, Bzz1-1, P38822; settings: median of control spots 4446
Nbp2, Q12163 = molecular target: T20, Nbp2, Q12163; settings: median of control spots 357
Bzz1-2, P38822 = molecular target: T21, Bzz1-2, P38822; settings: median of control spots 4538
Rvs167, P39743 = settings: median of control spots 2707
Chain of Rvs167, P39743 (P39743 419-482): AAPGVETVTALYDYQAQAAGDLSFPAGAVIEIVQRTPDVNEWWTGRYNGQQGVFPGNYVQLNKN

Binder	SPOT intensity (Bbc1, P47068)	SPOT intensity (GST)	SPOT intensity (Hof1, Q05080)	SPOT intensity (Boi2, P39969)	SPOT intensity (Sho1, P40073)	SPOT intensity (Bud14, P27637)	SPOT intensity (Lsb4, P32793)	SPOT intensity (Boi1, P38041)	SPOT intensity (Pex13, P80667)	SPOT intensity (Hse1, P38753)	SPOT intensity (Pin3, Q06449)	SPOT intensity (Sla1-2, P32790)	SPOT intensity (Lsb1, P53281)	SPOT intensity (Sla1-3, P32790)	SPOT intensity (Bem1-2, P29366)	SPOT intensity (Bem1-1, P29366)	SPOT intensity (Abp1, P15891)	SPOT intensity (Cyk3, Q07533)	SPOT intensity (Cdc25, P04821)	SPOT intensity (Lsb3, P43603)	further results
APERAVPILPPRNNV	13	0	63	1	7	0	1220	0	536	1	13	0	290	0	2	1	4	0	1	771	SPOT intensity (Fus1, P11710): 0; SPOT intensity (Myo3, P36006): 66; SPOT intensity (Myo5, Q04439): 0; SPOT intensity (Bzz1-1, P38822): 1; SPOT intensity (Nbp2, Q12163): 0; SPOT intensity (Bzz1-2, P38822): 0; SPOT intensity (Rvs167, P39743): 1340
FVLRYYILIPHEQWD	15	0	5	1	5	1	0	6	10	2	9	3	2	3	13	2	0	0	59	0	SPOT intensity (Fus1, P11710): 42; SPOT intensity (Myo3, P36006): 0; SPOT intensity (Myo5, Q04439): 0; SPOT intensity (Bzz1-1, P38822): 1; SPOT intensity (Nbp2, Q12163): 47; SPOT intensity (Bzz1-2, P38822): 2; SPOT intensity (Rvs167, P39743): 0
LPMNIQPDLPPRKIM	2	0	0	0	29	0	1360	0	35	3	175	6	285	0	0	0	141	0	0	941	SPOT intensity (Fus1, P11710): 0; SPOT intensity (Myo3, P36006): 102; SPOT intensity (Myo5, Q04439): 35; SPOT intensity (Bzz1-1, P38822): 0; SPOT intensity (Nbp2, Q12163): 6; SPOT intensity (Bzz1-2, P38822): 0; SPOT intensity (Rvs167, P39743): 2810
VQQDSLPKLPFRSWG	5	0	1570	2	66	0	1310	0	490	0	7	0	399	0	0	0	0	0	0	646	SPOT intensity (Fus1, P11710): 1; SPOT intensity (Myo3, P36006): 0; SPOT intensity (Myo5, Q04439): 0; SPOT intensity (Bzz1-1, P38822): 0; SPOT intensity (Nbp2, Q12163): 0; SPOT intensity (Bzz1-2, P38822): 0; SPOT intensity (Rvs167, P39743): 944
